Test results as given in patent US6284513.

Tests used:
[1] = molecular target: thiopeptolide Ac-Pro-Leu-Gly-thioester-Leu-Leu-Gly-OEt (not provided)
[2] = molecular target: proteoglycan

hydrolysis of the thiopeptolide substrate (Km, kcat) [1]: 270 µM
Proteoglycan Degradation (µg of Chondroitin Sulfate/h) (µg of Chondroitin Sulfate/h) [2]: 8
Substance: human stromelysin catalytic domain protein (enzyme)
